The values that follow come from patent US20220249649A1 (ECOLE POLYTECHNIQUE FEDERALE DE LAUSANNE, published 2022).

This test has as its target T1, D25 antibody (IgG).
T1 construct: RSVF site 0 neutralising antibody, human IgG1 vector; The IgG was immobilised on the SPR chip; PDB 4JHW is cited; also called nAb D25
The experiment in a line: not stated (comparison value, FIG. 18 cited).

B1: prefusion stabilized RSVF (sc9-10 DS-Cav1 A149C Y458C S46G E92D S215P K465Q variant, DS2) (other)
chain: QNITEEFYQSTCSAVSKGYLGALRTGWYTSVITIELSNIKENKCNGTDAKVKLIKQELDKYKNAVTDLQLLMQSTPPTNNGSGSAICSGVAVCKVLHLEGEVNKIKSALLSTNKAVVSLSNGVSVLTFKVLDLKNYIDKQLLPILNKQSCSIPNIETVIEFQQKNNRLLEITREFSVNAGVTTPVSTYMLTNSELLSLINDMPITNDQKKLMSNNVQIVRQQSYSIMCIIKEEVLAYVVQLPLYGVIDTPCWKLHTSPLCTTNTKEGSNICLTRTDRGWYCDNAGSVSFFPQAETCKVQSNRVFCDTMNSLTLPSEINLCNVDIFNPKYDCKIMTSKTDVSSSVITSLGAIVSCYGKTKCTASNKNRGIIKTFSNGCDYVSNKGMDTVSVGNTLYCVNKQEGQSLYVKGEPIINFYDPLVFPSDEFDASISQVNEKINQSLAFIRKSDELL
notes: also called preRSVF; prefusion RSVF
As to B1, the Kd (in general, the concentration at which binding is half-saturated) came to 150 µM.
